Data published in publication PMC12368178.
“And” between values parts separate entries of the source, which are not always exact repeats. Equal values may be shown once.

Target: 16055 DG4 NFL trimer (HIV-1 (Indian subtype C 16055 strain))
Test: SEC + native gel or EMSA

16055 DG4 NFL trimer
stoichiometry N: 3 and 6
